According to article PMC8774185, “Open-Bundle Structure as the Unfolding Intermediate of Cytochrome c′ Revealed by Small Angle Neutron Scattering” (Biomolecules, 2022):
Values joined by “and” are separate entries in the source; they are usually repeats but may differ in a detail not shown here. Equal values may be shown once.

Experiments:
[1] = biological target: the molecule itself; test: small-angle neutron scattering (SANS); 5.3 mg/mL Cyt c′ in D2O, 20 mM phosphate buffer, pD 9.6; KWS-1 beam line; Rg and curve compared with those of the crystal dimer; MW ratio from I(0)/C against the pD 1.7 sample; dimer to monomers
[2] = biological target: the molecule itself; test: small-angle neutron scattering (SANS); 5.5 mg/mL Cyt c′ in D2O, 20 mM phosphate buffer, pD 6.4; KWS-1 beam line; Rg and curve compared with those of the crystal dimer; MW ratio from I(0)/C against the pD 1.7 sample; dimer to monomers

B1: Cytochrome c′ from Alcaligenes xylosoxidans NCIMB 11015 (natural protein, UniProt P00138 1-127, looked up)
chain: QFAKPEDAVKYRQSALTLMASHFGRMTPVVKGQAPYDAAQIKANVEVLKTLSALPWAAFGPGTEGGDARPEIWSDAASFKQKQQAFQDNIVKLSAAADAGDLDKLRAAFGDVGASCKACHDAYRKKK
modifications: heme prosthetic group embedded in the C-terminal region
notes: Cytochrome c′ (c-type cytochrome, four-α-helix bundle) of Alcaligenes xylosoxidans NCIMB 11015; helices A(Ala3-Lys31), B(Asp37-Phe59), C(Ala76-Asp98), D(Asp103-Arg124); His120 axial ligand; crystal structures PDB 4WGZ and 4WGY are of the same protein; also called Cyt c′; Cyt c'
stoichiometry N [1]: 1.9 and 1.8 | stoichiometry N [2]: 2.1 and 2
